From patent US7183387 (Genentech, dated 2007)
Numbering of substitutions follows the chain as printed. In names and notes the source's numbering stands. Values belong to the binder of their own block, whether it stands above or below them.

Key:
[1] = molecular target: T1, human FcγRIIB α subunit extracellular domain-His6-GST fusion (human, UniProt P31994 43-217); test: hexamer ELISA
T1 construct: extracellular domain; also called CD32; not shown: glutathione S transferase (GST)
T1 sequence: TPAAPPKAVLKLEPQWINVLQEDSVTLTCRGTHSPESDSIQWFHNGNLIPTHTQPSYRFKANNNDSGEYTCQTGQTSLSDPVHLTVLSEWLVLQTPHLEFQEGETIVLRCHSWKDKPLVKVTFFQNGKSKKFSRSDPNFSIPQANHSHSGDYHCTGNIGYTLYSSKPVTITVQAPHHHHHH

[2] = molecular target: T2, human FcγRIIIA-Phe158 α subunit extracellular domain-His6-GST fusion (human, UniProt P08637 17-208); test: hexamer ELISA
T2 construct: extracellular domain; also called FcγRIIIA-F158; CD16; not shown: glutathione S transferase (GST)
T2 sequence (P08637 other isoform, or with tags, fused parts or gaps): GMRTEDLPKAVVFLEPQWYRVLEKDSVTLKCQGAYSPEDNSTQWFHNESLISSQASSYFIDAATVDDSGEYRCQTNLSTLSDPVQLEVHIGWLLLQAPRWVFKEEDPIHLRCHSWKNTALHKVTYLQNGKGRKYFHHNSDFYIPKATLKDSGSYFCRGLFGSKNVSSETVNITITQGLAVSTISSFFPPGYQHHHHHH

[3] = molecular target: T3, human FcγRIIA-Arg131 α subunit extracellular domain-His6-GST fusion (human, UniProt P12318 34-217); test: hexamer ELISA
T3 construct: extracellular domain; also called FcγRIIA-R131; not shown: glutathione S transferase (GST)
T3 sequence: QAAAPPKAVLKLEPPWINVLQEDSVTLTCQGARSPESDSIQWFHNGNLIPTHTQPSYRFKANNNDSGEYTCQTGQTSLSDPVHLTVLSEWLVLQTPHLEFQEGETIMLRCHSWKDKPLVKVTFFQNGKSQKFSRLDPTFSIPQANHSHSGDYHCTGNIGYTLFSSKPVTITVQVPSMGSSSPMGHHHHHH

[4] = molecular target: T2, human FcγRIIIA-Phe158 α subunit …; test: hexamer ELISA; remark: listed apart in the source
[5] = molecular target: T4, human neonatal Fc receptor (FcRn), biotinylated (human, UniProt P55899 24-297; P61769 21-119, biotinylated (biotin-X-NHS)); test: FcRn ELISA, pH 6.0;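 note: Streptavidin-captured FcRn plates, IgG variants titrated 2 h at pH 6.0, peroxidase anti-human IgG read at 450 nm, variant over standard concentration at the standard curve mid-point absorbance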
T4 construct: captured on streptavidin plates
Protocol: FcRn Binding ELISA: For measuring FcRn binding activity of IgG variants, ELISA plates were coated with 2 µg/ml streptavidin (Zymed, South San Francisco) in 50 mM carbonate buffer, pH 9.6, at 4° C. overnight and blocked with PBS-0.5% BSA, pH 7.2 at room temperature for one hour. Biotinylated FcRn (prepared using biotin-X-NHS from Research Organics, Cleveland, Ohio and used at 1–2 µg/ml) in PBS-0.5% BSA, 0.05% polysorbate 20, pH 7.2, was added to the plate and incubated for one hour. Two fold serial dilutions of IgG standard (1.6–100 ng/ml) or variants in PBS-0.5% BSA, 0.05% polysorbate 20, pH 6.0, were added to the plate and incubated for two hours. Bound IgG was detected using peroxidase labeled goat F(ab')_2 anti-human IgG F(ab')_2 in the above pH 6.0 buffer (Jackson ImmunoResearch, West Grove, Pa.) followed by 3,3',5,5'-tetramethyl benzidine (Kirgaard & Perry Laboratories) as the substrate. Plates were washed between steps with PBS-0.05% TWEEN 20® at either pH 7.2 or 6.0. Absorbance was read at 450 nm on a Vmax plate reader (Molecular Devices, Menlo Park, Calif.). Titration curves were fit with a four-parameter nonlinear regression curve-fitting program (KaleidaGraph, Synergy software, Reading, Pa.). Concentrations of IgG variants corresponding to the mid-point absorbance of the titration curve of the standard were calculated and then divided by the concentration of the standard corresponding to the mid-point absorbance of the standard titration curve.

[6] = molecular target: T5, human FcγRIA α subunit extracellular domain-His6-GST fusion (human, UniProt P12314 16-292); test: FcγRI ELISA and THP-1 cells, averaged
T5 construct: extracellular domain; also called GST-FcγRIA; CD64; not shown: glutathione S transferase (GST)
T5 sequence (P12314 other isoform, or with tags, fused parts or gaps): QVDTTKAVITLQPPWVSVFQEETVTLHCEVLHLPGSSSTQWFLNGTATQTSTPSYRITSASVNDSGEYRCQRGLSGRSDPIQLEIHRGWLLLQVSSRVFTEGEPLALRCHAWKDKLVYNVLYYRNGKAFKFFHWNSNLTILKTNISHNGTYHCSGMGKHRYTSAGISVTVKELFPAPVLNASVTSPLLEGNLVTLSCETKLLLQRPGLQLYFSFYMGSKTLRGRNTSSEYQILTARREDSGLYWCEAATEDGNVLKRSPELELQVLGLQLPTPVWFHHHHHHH

[7] = molecular target: T6, human FcγRIIA-R131 α subunit extracellular domain-His6-GST fusion protein (human, UniProt P12318 34-217); test: ELISA, IgG:IgE hexamer on coated FcγRIIA-R131-GST; value carried over from Table 6, 7 or 8
T6 construct: ECD-6His-GST fusion made in 293 cells, coated on the plate; also called FcγRIIA-Arg131; not shown: glutathione S-transferase (GST)
T6 sequence: T3 sequence

[8] = molecular target: T7, human FcγRIIA-H131 α subunit extracellular domain-His6-GST fusion protein (human, UniProt P12318 34-217); test: ELISA, IgG:IgE hexamer on coated FcγRIIA-H131-GST
T7 construct: also called FcγRIIA-His131; not shown: glutathione S-transferase (GST)
T7 sequence: T3 sequence with R134H

[9] = molecular target: T7, human FcγRIIA-H131 α subunit …; test: ELISA; binding ratio on FcγRIIA-H131 divided by that on FcγRIIA-R131
[10] = molecular target: T6, human FcγRIIA-R131 α subunit …; test: ELISA, IgG:IgE hexamer on coated FcγRIIA-R131-GST; separate assays run together with the H131 assays
[11] = molecular target: T8, human FcγRIIA-R131 α subunit extracellular domain-His6-GST fusion (human, UniProt P12318 34-217); test: ELISA, IgG complex, receptor coated
T8 construct: ECD-6His-GST fusion made in 293 cells; also called FcγRIIA-Arg131; not shown: glutathione S transferase (GST)
T8 sequence: T3 sequence

[12] = molecular target: T9, human FcγRIIA-H131 α subunit extracellular domain-His6-GST fusion (human, UniProt P12318 34-217); test: ELISA, IgG complex, receptor coated
T9 construct: ECD-6His-GST fusion made in 293 cells; also called FcγRIIA-His131; not shown: glutathione S transferase (GST)
T9 sequence: T3 sequence with R134H

[13] = molecular target: T10, human FcγRIIIA-F158 α subunit extracellular domain-His6-GST fusion (human, UniProt P08637 17-208); test: ELISA, IgG complex, receptor coated
T10 construct: ECD-6His-GST fusion made in 293 cells; also called FcγRIIIA-Phe158; not shown: glutathione S transferase (GST)
T10 sequence (P08637 other isoform, or with tags, fused parts or gaps, form in doubt): as the sequence (P08637 other isoform, or with tags, fused parts or gaps) above

- ratio of binding, variant/native IgG1 (mean) [11]: 1.64 ratio
- ratio of binding, variant/native IgG1 (mean) [12]: 1.05 ratio
- ratio of binding, variant/native IgG1 (mean) [13]: 1.14 ratio
B3: anti-IgE E27 IgG1 variant S267(280)A (antibody)
heavy: not shown
light: DIQLTQSPSSLSASVGDRVTITCRASKPVDGEGDSYLNWYQQKPGKAPKLLIYAASYLESGVPSRFSGSGSGTDFTLTISSLQPEDFATYYCQQSHEDPYTFGQGTKVEIKRTVAAPSVFIFPPSDEQLKSGTASVVCLLNNFYPREAKVQWKVDNALQSGNSQESVTEQDSKDSTYSLSSTLTLSKADYEKHKVYACEVTHQGLSSPVTKSFNRGEC
notes: Fc variant of E27; also called IG2 15; G15

- ratio of binding of the variant to that of native IgG1 [7]: 1.41 ratio (variant/native IgG1)
- ratio of binding of the variant to that of native IgG1 [8]: 1.02 ratio (variant/native IgG1)
- H131/R131 [9]: 0.65 ratio (H131 value/R131 value)
- ratio of binding of the variant to that of native IgG1 [10]: 1.57 ratio (variant/native IgG1)
B5: anti-IgE E27 IgG1 variant Ser267Ala/His268Ala (antibody)
heavy: not shown
light: B3 light
notes: also called S267(280)A H268(281)A; IG2 96

- ratio of binding, variant/native IgG1 (mean) [11]: 1.54 ratio
- ratio of binding, variant/native IgG1 (mean) [12]: 1.07 ratio
- ratio of binding, variant/native IgG1 (mean) [13]: 0.84 ratio
B6: anti-IgE E27 IgG1 variant S267(280)A/H268(281)A (antibody)
heavy: not shown
light: B3 light
notes: Fc variant of E27; also called IG2 96; Ser267Ala/His268Ala

- ratio of binding of the variant to that of native IgG1 [7]: 1.07 ratio (variant/native IgG1)
- ratio of binding of the variant to that of native IgG1 [8]: 1.18 ratio (variant/native IgG1)
- H131/R131 [9]: 0.94 ratio (H131 value/R131 value)
- ratio of binding of the variant to that of native IgG1 [10]: 1.28 ratio (variant/native IgG1)
B8: anti-IgE E27 IgG1 variant Thr307Ala (antibody)
heavy: not shown
light: B3 light
notes: also called T307(326)A; IG2 41

- ratio of binding, variant/native IgG1 (mean) [11]: 1.15 ratio
- ratio of binding, variant/native IgG1 (mean) [12]: 1.11 ratio
- ratio of binding, variant/native IgG1 (mean) [13]: 1.07 ratio
B10: anti-IgE E27 IgG1 variant N315(334)A (antibody)
heavy: not shown
light: B3 light
notes: Fc variant of E27; also called IG2 45; Asn315Ala

- ratio of binding of the variant to that of native IgG1 [7]: 1.12 ratio (variant/native IgG1)
- ratio of binding of the variant to that of native IgG1 [8]: 1.06 ratio (variant/native IgG1)
- H131/R131 [9]: 1.08 ratio (H131 value/R131 value)
- ratio of binding of the variant to that of native IgG1 [10]: 1 ratio (variant/native IgG1)
B13: anti-IgE E27 IgG1 variant Val305Ala (antibody)
heavy: not shown
light: B3 light
notes: also called V305(324)A; IG2 40

- ratio of binding, variant/native IgG1 (mean) [11]: 1.19 ratio
- ratio of binding, variant/native IgG1 (mean) [12]: 1.37 ratio
- ratio of binding, variant/native IgG1 (mean) [13]: 1.12 ratio
B15: anti-IgE E27 IgG1 variant T307(326)A (antibody)
heavy: not shown
light: B3 light
notes: Fc variant of E27; also called IG2 41; Thr307Ala

- ratio of binding, variant/native IgG1 (mean) [11]: 1.21 ratio
- ratio of binding, variant/native IgG1 (mean) [12]: 0.59 ratio
- ratio of binding, variant/native IgG1 (mean) [13]: 0.09 ratio
B16: anti-IgE E27 IgG1 variant S267(280)G (antibody)
heavy: not shown
light: B3 light
notes: Fc variant of E27; also called IG2 189; Ser267Gly

- ratio of binding of the variant to that of native IgG1 [7]: 1.13 ratio (variant/native IgG1)
- ratio of binding of the variant to that of native IgG1 [8]: 1.08 ratio (variant/native IgG1)
- H131/R131 [9]: 0.99 ratio (H131 value/R131 value)
- ratio of binding of the variant to that of native IgG1 [10]: 1.1 ratio (variant/native IgG1)
B17: anti-IgE E27 IgG1 variant Lys317Ala (antibody)
heavy: not shown
light: B3 light
notes: also called K317(336)A; IG2 46

- ratio of binding of the variant to that of native IgG1 [7]: 1.18 ratio (variant/native IgG1)
- ratio of binding of the variant to that of native IgG1 [8]: 0.54 ratio (variant/native IgG1)
- H131/R131 [9]: 0.47 ratio (H131 value/R131 value)
B18: anti-IgE E27 IgG1 variant Ser267Gly (antibody)
heavy: not shown
light: B3 light
notes: also called S267(280)G; IG2 189

- ratio of binding, variant/native IgG1 (mean) [11]: 1.12 ratio
- ratio of binding, variant/native IgG1 (mean) [12]: 1.04 ratio
- ratio of binding, variant/native IgG1 (mean) [13]: 0.84 ratio
B20: anti-IgE E27 IgG1 variant V305(324)A (antibody)
heavy: not shown
light: B3 light
notes: Fc variant of E27; also called IG2 40; Val305Ala

Second part, the binder before the results:

B1: anti-IgE E27 IgG1 Glu293Ala (antibody)
heavy: not shown
light: B3 light
- ratio to native IgG1 [1]: 1.07 ratio
- ratio to native IgG1 [2]: 0.31 ratio
- ratio to native IgG1 [3]: 1.08 ratio
- reduction in binding against native IgG1 [4]: 70%
- ratio to native IgG1 [5]: 0.85 ratio
- ratio to native IgG1 [6]: 1.11 ratio

B2: anti-IgE E27 IgG1 variant Ser267Ala (antibody)
heavy: not shown
light: B3 light
notes: also called S267(280)A; S280A
- ratio of binding of the variant to that of native IgG1 [7]: 1.52 ratio (variant/native IgG1)
- ratio of binding of the variant to that of native IgG1 [8]: 1.1 ratio (variant/native IgG1)
- H131/R131 [9]: 0.71 ratio (H131 value/R131 value)
- ratio of binding of the variant to that of native IgG1 [10]: 1.53 ratio (variant/native IgG1)

B4: anti-IgE E27 IgG1 Tyr296Phe (antibody)
heavy: not shown
light: B3 light
- ratio to native IgG1 [1]: 0.86 ratio
- ratio to native IgG1 [2]: 0.55 ratio
- ratio to native IgG1 [3]: 0.97 ratio
- reduction in binding against native IgG1 [4]: 50%
- ratio to native IgG1 [5]: 0.79 ratio
- ratio to native IgG1 [6]: 1.03 ratio

B7: anti-IgE E27 IgG1 variant H268(281)A (antibody)
heavy: not shown
light: B3 light
notes: Fc variant of E27; also called IG2 16; G16
- ratio of binding, variant/native IgG1 (mean) [11]: 1.22 ratio
- ratio of binding, variant/native IgG1 (mean) [12]: 1.09 ratio
- ratio of binding, variant/native IgG1 (mean) [13]: 0.52 ratio

B9: anti-IgE E27 IgG1 variant K317(336)A (antibody)
heavy: not shown
light: B3 light
notes: Fc variant of E27; also called IG2 46; Lys317Ala
- ratio of binding, variant/native IgG1 (mean) [11]: 1.13 ratio
- ratio of binding, variant/native IgG1 (mean) [12]: 1.04 ratio
- ratio of binding, variant/native IgG1 (mean) [13]: 1.1 ratio

B11: anti-IgE E27 IgG1 variant Asp270Ala (antibody)
heavy: not shown
light: B3 light
notes: also called D270(283)A; D283A
- ratio of binding of the variant to that of native IgG1 [8]: 0.45 ratio (variant/native IgG1)
- H131/R131 [9]: 16.6 ratio (H131 value/R131 value)

B12: anti-IgE E27 IgG1 variant Asn315Ala (antibody)
heavy: not shown
light: B3 light
notes: also called IG2 45
- ratio of binding of the variant to that of native IgG1 [7]: 1.15 ratio (variant/native IgG1)
- ratio of binding of the variant to that of native IgG1 [8]: 1.1 ratio (variant/native IgG1)
- H131/R131 [9]: 0.99 ratio (H131 value/R131 value)
- ratio of binding of the variant to that of native IgG1 [10]: 1.11 ratio (variant/native IgG1)

B14: anti-IgE E27 IgG1 variant K320(339)A (antibody)
heavy: not shown
light: B3 light
notes: Fc variant of E27; also called IG2 48; Lys320Ala
- ratio of binding, variant/native IgG1 (mean) [11]: 1.12 ratio
- ratio of binding, variant/native IgG1 (mean) [12]: 1.16 ratio
- ratio of binding, variant/native IgG1 (mean) [13]: 0.87 ratio

B19: anti-IgE E27 IgG1 variant His268Ala (antibody)
heavy: not shown
light: B3 light
notes: also called H268(281)A; H281A
- ratio of binding of the variant to that of native IgG1 [7]: 1.21 ratio (variant/native IgG1)
- ratio of binding of the variant to that of native IgG1 [8]: 0.97 ratio (variant/native IgG1)
- H131/R131 [9]: 0.75 ratio (H131 value/R131 value)
- ratio of binding of the variant to that of native IgG1 [10]: 1.3 ratio (variant/native IgG1)
